Measurements as given in patent US20240344040A1, “PROKARYOTIC AND EUKARYOTIC CELLS WITH BIOSYNTHESIZED SULFOTYROSINE FOR GENETIC INCORPORATION” (William Marsh Rice University, priority 2023, published 2024).
Non-standard residues stand in square brackets, D forms with d. sY = N[C@@H](Cc1ccc(OS(=O)(=O)O)cc1)C(=O)O

Target: thrombin
Assay: chromogenic thrombin amidolytic activity assay; tight-binding model (Morrison equation)

Row | Ki [nM] | Binder
1 | 16 | wildtype madanin-1 (peptide) MYPERDSAKEGNQEQERALHVKVQKRTDGDADYDEYEEDGTTPTPDPTAPTAKPRLRGNKPHHHHHH
2 | 0.5 | madanin-1 sulfated at both Tyr32 and Tyr35 (peptide) MYPERDSAKEGNQEQERALHVKVQKRTDGDAD[sY]DE[sY]EEDGTTPTPDPTAPTAKPRLRGNKPHHHHHH
3 | 6.1 | madanin-1 with a single sulfotyrosine at Tyr35 (peptide) MYPERDSAKEGNQEQERALHVKVQKRTDGDADYDE[sY]EEDGTTPTPDPTAPTAKPRLRGNKPHHHHHH
4 | 0.6 | chimadanin with a single biosynthesized sulfotyrosine at Tyr28 (sulfotyrosine at Tyr28 (counted without the initiator Met; residue 29 of SEQ ID NO: 107 as printed)) MQPKEKTKGVEVEGNPATLISARQMDVSYDEYEDNGPDVIPGEPAKPRGGPKNGAASGKFDQIPDFSSESHHHHHHH
5 | 0.1 | chimadanin doubly sulfated at both Tyr28 and Tyr31 (sulfotyrosine at Tyr28 and Tyr31 (counted without the initiator Met; residues 29 and 32 of SEQ ID NO: 107 as printed)) MQPKEKTKGVEVEGNPATLISARQMDVSYDEYEDNGPDVIPGEPAKPRGGPKNGAASGKFDQIPDFSSESHHHHHHH
6 | 12.9 | wildtype chimadanin (peptide) MQPKEKTKGVEVEGNPATLISARQMDVSYDEYEDNGPDVIPGEPAKPRGGPKNGAASGKFDQIPDFSSESHHHHHHH
7 | 1.5 | chimadanin with a single biosynthesized sulfotyrosine at Tyr31 (sulfotyrosine at Tyr31 (counted without the initiator Met; residue 32 of SEQ ID NO: 107 as printed)) MQPKEKTKGVEVEGNPATLISARQMDVSYDEYEDNGPDVIPGEPAKPRGGPKNGAASGKFDQIPDFSSESHHHHHHH
8 | 1.3 | madanin-1 with a single sulfotyrosine at Tyr32 (peptide) MYPERDSAKEGNQEQERALHVKVQKRTDGDAD[sY]DEYEEDGTTPTPDPTAPTAKPRLRGNKPHHHHHH
